For one data set, the system named is casein. Kind of data set: Optimum temperature for activity with casein. It counts as biochemical. The settings on record: casein 0.8%, 30 minutes. As for the experimental part:
Specific activities for TLP-ste and the 8-fold mutant were determined using casein (0.8%) as a substrate in 50 mM Tris-HCl (pH 7.5), 5 mM CaCl2 at 37° C. […] (pH 7.0), 5 mM CaCl2, 5% or 1% DMSO, 0.5% isopropanol, 0.01% Triton X-100, 50 mM NaCl, with […] of substrate, by measuring the decrease in absorption at 345 nm (Î345=−317 M^−1·cm^−1). Stock solutions of the furylacryloylated dipeptides, (Sigma, St. Louis, […].) were prepared by dissolving 3-(-2-furylacryloyl)-L-glycyl-L-leucine amide (FaGLa) and 3-(-2-furylacryloyl)-L-alanyl-L-phenylalanine amide (FaAFa) in DMSO. The kcat/Km ratios of the enzymes were determined by varying the enzyme concentrations (over a 50 fold range) under pseudo-first order conditions by measuring the initial activity, essentially according to the method described by Feder^30. The Ki for phosphoramidon (N-[a-L-rhamnopyrano-syl-oxyhydroxyphophinyl]-L-leucyl-L-tryptophan) was determined by a 30 minute preincubation of a 100 pM protease solution with varying concentrations of the inhibitor (10^−8 to 10^−3 M), in 50 mM MOPS (pH 7.0), 5 mM CaCl2, 50 mM NaCl, prior to the addition of the furylacryloated substrate. For determination of the Ki FaAFa was used as the substrate. Since the Km of the substrate for the enzyme is higher than the concentration used, IC50 values were taken to be equal to Ki values. The optimum temperature for activity was determined by incubating proteases with casein (0.8%) in 50 mM Tris-HCl (pH 7.5), 5 mM CaCl2, at different temperatures for 30 minutes, after which the amount of released peptides, indicative for activity, was measured^11.

Data set [1] is classed as physicochemical. The following applies: buffer, pH 5.3. On the procedure: Stabilities of TLPs were determined at different temperatures. Shown are the first-order inactivation curves for TLP-ste incubated at 80° C. (Δ) and 90° C. (+), thermolysin at 90° C. (Δ), and the 8-fold mutant at 100° C. (●), respectively. […] Samples, taken at the various time points, were quickly cooled on ice (15 s) and transferred to 50° C. to prevent cold denaturation. Residual activity was determined using casein (0.8%) as a substrate in 50 mM TrisHCl (pH 7.5), 5 mM CaCl2 as described previously (Eijsink, V. G. H., Veltman, O. R., Aukema, W., Vriend, G. & Venema, G. Nature Struct. Biol. 2, 374-379 (1995)).

A short description of data set [2]: Thermal stability (T50) at varying CaCl2 concentrations.
Procedure: Thermal stability was measured, using varying CaCl2concentrations in the standard assay buffer (20 mM Na acetate, pH 5.3, 0.01% Triton X-100, 0.5% isopropanol, 62.5 mM NaCl). T50 is the temperature of incubation at which 50 percent of the initial proteolytic activity is lost during a 30 minutes incubation.
Data set [3] is described as follows: First order thermal inactivation of TLP-ste variants at 75° C. in 5 mM or 0.2 mM CaCl2.
The mark [4] stands for this setting: 0.2 mM CaCl2, 30 minutes incubation.
Where [5] appears, read: 0.5 mM CaCl2, 30 minutes incubation.
Setting [6] is: 2.5 mM CaCl2, 30 minutes incubation.
The mark [7] stands for this setting: 5.0 mM CaCl2, 30 minutes incubation.
[8] abbreviates: 7.5 mM CaCl2, 30 minutes incubation.
Setting [9] is: 12.5 mM CaCl2, 30 minutes incubation.

B1: TLN: thermolysin, protease secreted by Bacillus thermoproteolyticus, SEQUENCE ID No. 2 (protein, UniProt P00800 233-548, looked up)
Thermolysin: ITGTSTVGVGRGVLGDQKNINTTYSTYYYLQDNTRGNGIFTYDAKYRTTLPGSLWADADNQFFASYDAPAVDAHYYAGVTYDYYKNVHNRLSYDGNNAAIRSSVHYSQGYNNAFWNGSQMVYGDGDGQTFIPLSGGIDVVAHELTHAVTDYTAGLIYQNESGAINEAISDIFGTLVEFYANKNPDWEIGEDVYTPGISGDSLRSMSDPAKYGDPDHYSKRYTGTQDNGGVHINSGIINKAAYLISQGGTHYGVSVVGIGRDKLGKIFYRALTQYLTPTSNFSQLRAAAVQSATDLYGSTSQEVASVKQAFDAVGVK
Turning to B1, in the data set with casein, the “Topt (optimum temperature for activity)” value was determined as 77 °C. Besides, in data set [1], the “half-life 80° C.” value was more than 200 min, the “half-life 90° C.” value was determined as 12.5 min and the “half-life 100° C.” value is less than 2 min.

B2: D57S: TLP-ste variant with Asp57 of the Ca3 site replaced by Ser (protein, listed as Bacillus sp.)
chain: VAGASTVGVGRGVLGDQKYINTTYSGYYYLQDNTRGSGIFTYDGRNRTVLPGSLWTSGDNQFTASYDAAAVDAHYYAGVVYDYYKNVHGRLSYDGSNAAIRSTVHYGRGYNNAFWNGSQMVYGDGDGQTFLPFSGGIDVVGHELTHAVTDYTAGLVYQNESGAINEAMSDIFGTLVEFYANRNPDWEIGEDIYTPGVAGDALRSMSDPAKYGDPDHYSKRYTGTQDNGGVHTNSGIINKAAYLLSQGGVHYGVSVNGIGRDKMGKIFYRALVYYLTPTSNFSQLRAACVQAAADLYGSTSQEVNSVKQAFNAVGVY
Regarding B2, in data set [2], the “dependence of stability on the calcium concentration” value is “reduced this calcium dependence”. In addition, the T50 in data set [2] (setting [4]) was determined as 65.9 °C; in data set [2] (setting [5]), 67.3 °C; in data set [2] (setting [6]), 67.5 °C; in data set [2] (setting [7]) it was 68.2 °C; in data set [2] (setting [8]) it was 68.8 °C; in data set [2] (setting [9]), 69.4 °C. In data set [2] (lowest calcium concentration tested), the “stability effect of the mutation on the wild-type enzyme” value was “slightly stabilised”. The “Half-life ratio 5 mM/0.2 mM” value in data set [3] is 1.5.

B3: T63F-A69P: TLP-ste variant with the combined stabilising T63F-A69P mutation (protein, listed as Bacillus sp.)
chain: VAGASTVGVGRGVLGDQKYINTTYSGYYYLQDNTRGSGIFTYDGRNRTVLPGSLWTDGDNQFFASYDAPAVDAHYYAGVVYDYYKNVHGRLSYDGSNAAIRSTVHYGRGYNNAFWNGSQMVYGDGDGQTFLPFSGGIDVVGHELTHAVTDYTAGLVYQNESGAINEAMSDIFGTLVEFYANRNPDWEIGEDIYTPGVAGDALRSMSDPAKYGDPDHYSKRYTGTQDNGGVHTNSGIINKAAYLLSQGGVHYGVSVNGIGRDKMGKIFYRALVYYLTPTSNFSQLRAACVQAAADLYGSTSQEVNSVKQAFNAVGVY
Consider B3, for which the “dependence of stability on the calcium concentration” value in data set [2] is recorded as “depended strongly on the calcium concentration”. In addition, the T50 was found to be 77.8 °C in data set [2] (setting [4]); 80.9 °C in data set [2] (setting [5]); 86.6 °C in data set [2] (setting [6]); 87.2 °C in data set [2] (setting [7]); 89.7 °C in data set [2] (setting [8]); 90.2 °C in data set [2] (setting [9]). Besides, the “Half-life ratio 5 mM/0.2 mM” value in data set [3] worked out at 19.

B4: D57S-T63F-A69P: TLP-ste variant combining D57S with T63F-A69P (protein, listed as Bacillus sp.)
chain: VAGASTVGVGRGVLGDQKYINTTYSGYYYLQDNTRGSGIFTYDGRNRTVLPGSLWTSGDNQFFASYDAPAVDAHYYAGVVYDYYKNVHGRLSYDGSNAAIRSTVHYGRGYNNAFWNGSQMVYGDGDGQTFLPFSGGIDVVGHELTHAVTDYTAGLVYQNESGAINEAMSDIFGTLVEFYANRNPDWEIGEDIYTPGVAGDALRSMSDPAKYGDPDHYSKRYTGTQDNGGVHTNSGIINKAAYLLSQGGVHYGVSVNGIGRDKMGKIFYRALVYYLTPTSNFSQLRAACVQAAADLYGSTSQEVNSVKQAFNAVGVY
In the case of B4, the “dependence of stability on the calcium concentration” value in data set [2] is “largely independent of the calcium concentration”. The T50 in data set [2] (setting [4]) turned out to be 74.6 °C; in data set [2] (setting [5]), 75.4 °C; in data set [2] (setting [6]) it was 76.2 °C; in data set [2] (setting [7]), 76.5 °C; in data set [2] (setting [8]), 76.7 °C; in data set [2] (setting [9]), 77.2 °C. In addition, in data set [2] (at lower calcium concentrations), the “stability compared with the wild-type enzyme” value was “considerably more stable than the wild-type enzyme”. In data set [3], the “Half-life ratio 5 mM/0.2 mM” value is 1.5.

The values are drawn from patent publication US6518054B1, “Metallo-endopeptidases” (Rijksuniverstteit Te Groningen, priority 1997, dated 2003).
